Assay results as given in US8088892B2, “Inhibitors of proteins from the Rho-GEF family” (Centre National de la Recherche Scientifique (C.N.R.S.), priority 2002, dated 2012).
Entries after “also recorded” stand apart in the source; their conditions may differ.

B1: TRIAPα: aptamer of 154 amino acids: variable region of 42 amino acids inserted into the thioredoxin protein; tested as GST fusion (protein)
chain: MSDKIIHLTDDSFDTDVLKADGAILVDFWAEWCGPAREGADGAICGYNLATLVMLGPSERVFCPLCEPCSSDIYELMGPCKMIAPILDEIADEYQGKLTVAKLNIDQNPGTAPKYGIRGIPTLLLFKNGEVASATKVGALSKGQLKEFLDANLA

What was measured:
[1] = system: NGF-differentiated PC12 cells; experiment: Serum-induced neurite retraction; type: cell-based; details: 0 to 15 min after serum addition
Procedure: FIG. 6A represents histograms quantifying the effects of GFP-TRIPα or GFP on serum induced neurite retraction in NGF-differentiated PC12 cells. The X-axis represents the time after serum addition in minutes and the Y-axis represents the percentage of transfected cells with neurites.
Cells were transfected with GFP-TRIPα (white bars) or GFP (black bars) and differentiated with NGF (50 ng/ml). Serum was added and neurite retraction was followed for 15 minutes. The number of transfected cells with neurites was counted from at least 200 cells in 3 independent experiments.
Since Trio is an activator of RhoA and is expressed in PC12 cells (Estrach et al., 2002), it was analysed whether TRIPα could interfere with serum-induced neurite retraction in NGF-differentiated PC12 cells. […] After NGF treatment, cells were subjected to serum addition (DMEM medium supplemented with 10% HS and 5% fetal calf serum (FCS)) from 0 to 15 min (FIG. 6A). Cells were then fixed and permeabilised (Estrach et al., 2002) and observed as described in FIG. 5. Cells with neurites are defined as cells with neurites of at least twice the length of the cell body.

TrioDH2 (a.a. 1848-2096) = target: T1, TrioDH2 (a.a. 1848-2096) (Homo sapiens, UniProt O75962); experiment: Binding specificity of aptamers in yeast; details: growth on selective medium
T1 construct: TrioDH2 (a.a. 1848-2096); expressed in transfected cells; host or cells: yeast
Source text: (§1) Trx represents the thioredoxin protein with no inserted peptide.
(§2) In order to identify specific inhibitors of TrioGEFD2, a recently developed strategy was used, this strategy being derived from the yeast two hybrid system, where the cDNA library of preys has been replaced by a combinatorial library of short peptides (20 amino acids) in fusion with the bacterial protein thioredoxin A (Colas et al., 1996). This strategy has been successfully used to isolate specific inhibitors of the cyclin-dependent kinases (Cdks), the cell cycle transcription factor E2F, or the viral HPV16 E6 oncoprotein and HBEV core protein (Colas et al., 1996; Butz et al., 2001; Fabrizzio et al., 1999; Geyer et al., 2000). The TrioGEFD2 bait was constructed as follows: plasmid pMTHATrio1848-2298 (Bellanger et al., 1998) was digested with EcoRI/XhoI and the insert cloned in pEG202EcoRI/XhoI to generate the bait pEG202TroGEFD2. Yeast strain EGY048 (Colas et al., 1996) was transformed with pEG202TrioGEFD2 and subsequently with the library of Thioredoxin constrained aptamers according to standard procedures (Ito et al., 1983). After transformation, cells were allowed to recover for 4 hours in galactose containing medium before plating on selective galactose medium. Of the 2×10^6 screened colonies, those growing in the selective medium were recovered and retested for interaction. […]

[2] = target: T2, TrioGEFD2 (DH2PH2, amino acids 1848-2298) (Homo sapiens, UniProt O75962); experiment: Binding specificity of aptamers in yeast (two-hybrid, growth on selective medium); parameters: key to Binding in yeast: +++^1 and +^1 represent respectively a full and a partial (see FIG. 1) binding capacity; +++^1 and +^1 represent respectively a full and a partial (see FIG. 1) binding capacity; −−^1 represents a lack of binding
T2 construct: TrioGEFD2 (DH2PH2, amino acids 1848-2298); expressed in transfected cells; host or cells: yeast strain EGY048
Source text: as §1, §2

| Molecule | Effect on serum-induced neurite retraction [1] | Binding to the DH2 catalytic domain in yeast (TrioDH2 (a.a. 1848-2096)) | Binding in yeast ([2]; RhoGEF TrioDH2PH2) | Binding to TrioGEFD2 (DH2PH2) in yeast ([2]; growth on selective medium) |
| --- | --- | --- | --- | --- |
| AREGADGAICGYNLATLVMLGPSERVFCPLCEPCSSDIYELM [TRIPα, 42-amino acid peptide corresponding to the variable region of TRIAPα] | prevents serum- and LPA-induced neurite retraction; also recorded: significantly inhibited this retraction |  |  |  |
| B1 |  | also binds to the DH2 catalytic domain; also recorded: interacted with the DH2 catalytic domain alone | +++^1 | binding to TrioGEFD2 |
